Tested on: MS2 coat protein
Experiment: apparent KD of MS2 coat protein; designed switch direction (-1 OFF switch, 1 ON switch): 1; higher = weaker reporter binding
Method in brief: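 The buffer was Tris-HCl pH 7.5 with KCl, MgCl2, BSA, DTT, tRNA and Tween-20. In it, SNAP-549-labelled MS2 coat protein was titrated in doubling steps from 0.7 or 1.5 nM to 3 µM over chip-bound RNA switches transcribed by stalled E. coli RNA polymerase on Illumina chips. Apparent KD is the per-design median over clusters of curve fits to normalised fluorescence.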

[1] = input ligand: microRNA oligo, concentration not stated
[2] = Eterna round: R95, input ligand: FMN 200 uM
[3] = Eterna round: R95, input ligand: microRNA oligo, concentration not stated
[4] = Eterna round: R95, input ligand: none

Row | Sequence | apparent KD of MS2 coat protein (input ligand: FMN 200 uM) [nM] | apparent KD of MS2 coat protein [1] [nM] | apparent KD of MS2 coat protein (input ligand: none) [nM] | apparent KD of MS2 coat protein [2] [nM] | apparent KD of MS2 coat protein [3] [nM] | apparent KD of MS2 coat protein [4] [nM]
1 | GCUCGGAUGAUGGCCCACAUGAGGAUCACCCAUGUGCGUGGGCAGGAUAUCUAGAUUAAGGAUGUAGAGAAGGGUCUACCGAGC [SameState NG3 #32] (Eterna round: R96, puzzle: Same State NG 3) | 194 | 67.9 | 128 | – | – | –
2 | GCUACCAAAGAAGCCAACAUGAGGAUCACCCAUGUAUGUUGGUAGGAUAUCGUUUGCAAAGCGAACGAGAAGGGCUAAGGUAGC [Mat - Same State NG 3 - JL Mod - D85] (Eterna round: R96, puzzle: Same State NG 3) | 151 | 88.1 | 101 | – | – | –
3 | UACAAUCUAUCUGAGGAUAUCAUGAAUUAAACAUGAGGAUCACCCAUGUGCAGGAAAACUGCAUAUGAGAAGGCAGAUAGAUUGU [salish99_ss2_r3_060] (puzzle: Same State 2) | – | – | – | 52.9 | 2.45 | 804
4 | CUGAGCGAUCUAGGAUAUCACGUCGAUUAGACGUGAGAAGGAGAUCAUAACAUGAGGAUCACCCAUGUAUUACAUGAAGCUCAG [SSNG1/6-A2] (Eterna round: R96, puzzle: Same State NG 1) | 17.6 | 9.15 | 19.6 | – | – | –
5 | CGGGUACAUGAGGAUCACCCAUGUGGGAGGGAUGCAGGAUAUGUGGGAAAAGGGUAUGUAACAGAAGGGCAAGGAG [JR_SS!_Sub014] (puzzle: Same State 1) | – | – | – | 30.8 | 31.8 | 45.1
6 | GUGCUCGUGUGAGGAUAUGCUUCCGUUUCGGCUGCAGAAGGUACUAUUAUACAUGAGGAUCACCCAUGUCUCUUUUCUUCGGUG [salish99_SSNG1_r04_912] (Eterna round: R96, puzzle: Same State NG 1) | – | 22.8 | – | – | – | –
7 | AAAAGAAGAAUGUAGGAUAUACAAAAGAACACAUGAGGAUCACCCAUGUGAGCCUAAUGUAAGAAGUAGAAGGACAAAGAGAAAA [Default title] (puzzle: Same State 2) | – | – | – | 91.3 | 62 | 67.3
8 | AGAUCUCCUCUAGGAUAUCCCUAACAUGAGGAUCACCCAUGUCCGAAUUGCAGACAUAGGCCGAGGGAGAAGGAGAAACCGUCG [Eternabot solution 41] (Eterna round: R96, puzzle: Same State NG 2) | 742 | 576 | 856 | – | – | –
9 | GCUCGACGUAUUGUCUACAUGAGGAUCACCCAUGUAGGUGCGGAGGAUAUUUACGUGUCUCAUGUAGAGAAGGUCGUGUCGAGC [SameState NG3 #95] (Eterna round: R96, puzzle: Same State NG 3) | 912 | 47.4 | 46.8 | – | – | –
10 | UGGCUCAGACGAGGAUAUAUGUGGUCACAUGAGGAUCACCCAUGUCUCGAGCUUCGGCUCGAGGCAUAGAAGGUGUCUGAGCCU [SSNG2/5-C3] (Eterna round: R96, puzzle: Same State NG 2) | 132 | 33.5 | 23.1 | – | – | –
11 | GCCGGCUGAUGAGGAUAUGGCACCUUAUUGGUGCCAGAAGGCAUGUCAAUUGACAUGAGGAUCACCCAUGUAUUAUAGUUGGCG [salish99_SSNG1_r04_604] (Eterna round: R96, puzzle: Same State NG 1) | 117 | 233 | 326 | – | – | –
12 | GGUGGGUUGCUGCCGGCACAUGAGGAUCACCCAUGUUUUGGGAAGGAUAUGGUACCUGUUUGGUGCCAGAAGGUCCCGUUGGUG [salish99_SSNG3_r04_711] (Eterna round: R96, puzzle: Same State NG 3) | 864 | 526 | 522 | – | – | –
13 | AUAAAACAUGAGGAUCACCCAUGUCAACAAAGUCGAGGAUAUGGGCAAAUAAAAUAAGAACCAGAAGGCGUAUAAU [salish99_ss1_r3_034] (puzzle: Same State 1) | – | – | – | – | 341 | –
